Assay results: patent US20070077603A1 (published 2007)

How the values were obtained:
Test in all cases: ligand blot from native 4-15% PAGE of Sephacryl-300 fractions of hirudin-plasma
[1] = biological target: T1, monomeric protein S in plasma (human, UniProt P07225 42-676)
T1 construct: mature; also called monomers
T1 sequence (looked up): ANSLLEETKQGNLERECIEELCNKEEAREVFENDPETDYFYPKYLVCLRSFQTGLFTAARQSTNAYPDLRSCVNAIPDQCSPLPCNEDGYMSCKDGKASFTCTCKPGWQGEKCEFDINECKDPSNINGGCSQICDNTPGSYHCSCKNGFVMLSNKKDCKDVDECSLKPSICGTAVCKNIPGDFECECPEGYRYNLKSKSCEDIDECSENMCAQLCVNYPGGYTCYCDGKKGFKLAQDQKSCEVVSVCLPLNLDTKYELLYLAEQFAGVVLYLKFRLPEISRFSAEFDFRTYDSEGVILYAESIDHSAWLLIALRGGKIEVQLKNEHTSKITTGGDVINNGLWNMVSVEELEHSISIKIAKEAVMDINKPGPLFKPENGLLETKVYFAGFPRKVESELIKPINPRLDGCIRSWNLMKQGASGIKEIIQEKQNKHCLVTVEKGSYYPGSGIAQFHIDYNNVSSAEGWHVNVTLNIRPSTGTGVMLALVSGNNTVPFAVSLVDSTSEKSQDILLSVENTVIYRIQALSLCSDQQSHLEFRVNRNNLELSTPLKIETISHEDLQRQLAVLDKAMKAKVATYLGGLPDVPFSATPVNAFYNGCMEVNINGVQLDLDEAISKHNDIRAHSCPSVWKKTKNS
Description: (§1) Gel filtration - - - Purified protein S preparations or hirudin-plasma (200 μl ) were fractionated on a 1×30 cm Superose-6 HR column using Fast Performance Liquid Chromatography (Amersham-Pharmacia, Piscattaway, N.J.) at a flow rate of 0.4 ml/min in Hepes-buffered saline (HBS). Hirudin and citrated plasmas (300 ul) were each mixed with 700 μl of 50 mM benzamidine and fractionated on a 1.6×60 cm Sephacryl-300 column at a flow rate of 0.4 ml/min in Tris-buffered saline. Fractions were analyzed for protein S antigen by ELISA, for protein S multimers by native PAGE, and for PS-direct. ELISAs were also performed on the fractions for FV, FX, and C4BP antigens
(§2) To further separate protein S forms in plasma, hirudin-plasma and citrated plasma were each subjected to gel filtration on a larger column (FIGS. 8B and 8C). […] Biotin-FXa could ligand blot (Heeb, et al. Protein S binds to and inhibits factor Xa. Proc Natl Acad Sci USA. 1994;91:2728-2732) to PS-C4BP, multimeric and monomeric protein S in fractionated hirudin plasma (FIG. 8C).

[2] = biological target: T2, multimeric protein S in plasma (human, UniProt P07225 42-676)
T2 construct: mature; also called protein S multimers in plasma; putative protein S multimers
T2 sequence (looked up): T1 sequence (looked up)
Description: as §1, §2

[3] = biological target: T3, Protein S-C4b-binding protein complex in fractionated hirudin-plasma (human, UniProt P07225 42-676; P04003 49-597; P20851 18-252)
T3 construct: Native complex from plasma; also called PS-C4BP; Cx
T3 sequence (looked up) 1: T1 sequence (looked up)
T3 sequence (looked up) 2: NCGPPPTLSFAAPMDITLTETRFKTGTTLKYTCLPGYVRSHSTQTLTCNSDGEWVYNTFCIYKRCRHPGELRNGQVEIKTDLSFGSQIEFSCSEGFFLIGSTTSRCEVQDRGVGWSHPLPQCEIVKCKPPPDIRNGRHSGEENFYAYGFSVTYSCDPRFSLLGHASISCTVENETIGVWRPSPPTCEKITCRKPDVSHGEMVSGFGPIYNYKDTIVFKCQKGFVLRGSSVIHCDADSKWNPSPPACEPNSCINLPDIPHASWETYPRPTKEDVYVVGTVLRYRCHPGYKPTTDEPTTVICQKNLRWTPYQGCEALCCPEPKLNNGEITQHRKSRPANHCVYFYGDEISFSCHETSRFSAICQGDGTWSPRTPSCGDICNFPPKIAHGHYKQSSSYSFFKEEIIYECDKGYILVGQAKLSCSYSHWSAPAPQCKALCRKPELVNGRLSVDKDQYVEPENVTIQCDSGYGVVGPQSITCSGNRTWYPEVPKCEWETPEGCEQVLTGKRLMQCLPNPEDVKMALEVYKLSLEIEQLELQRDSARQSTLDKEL
T3 sequence (looked up) 3: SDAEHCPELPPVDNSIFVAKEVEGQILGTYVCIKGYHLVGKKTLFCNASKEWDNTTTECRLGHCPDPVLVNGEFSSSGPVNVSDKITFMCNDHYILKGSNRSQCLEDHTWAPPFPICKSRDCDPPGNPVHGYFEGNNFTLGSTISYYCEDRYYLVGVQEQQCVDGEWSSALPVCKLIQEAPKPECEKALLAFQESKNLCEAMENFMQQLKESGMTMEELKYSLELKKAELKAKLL
Description: as §1, §2

Measured: binding result

B1: Biotin-FX (other)
chain 1: ANSFLEEMKKGHLERECMEETCSYEEAREVFEDSDKTNEFWNKYKDGDQCETSPCQNQGKCKDGLGEYTCTCLEGFEGKNCELFTRKLCSLDNGDCDQFCHEEQNSVVCSCARGYTLADNGKACIPTGPYPCGKQTLER
chain 2: SVAQATSSSGEAPDSITWKPYDAADLDPTENPFDLLDFNQTQPERGDNNLTRIVGGQECKDGECPWQALLINEENEGFCGGTILSEFYILTAAHCLYQAKRFKVRVGDRNTEQEEGGEAVHEVEVVIKHNRFTKETYDFDIAVLRLKTPITFRMNVAPACLPERDWAESTLMTQKTGIVSGFGRTHEKGRQSTRLKMLEVPYVDRNSCKLSSSFIITQNMFCAGYDTKQEDACQGDSGGPHVTRFKDTYFVTGIVSWGEGCARKGKYGIYTKVTAFLKWIDRSMKTRGLPKAKSHAPEVITSSPLK
modifications: biotinylated (sites not given)
no binding: all assays above
